Assay results as given in patent US20110052582A1 (Hoffmann-La Roche, published 2011).
Substitutions are numbered along the chain they refer to. Values belong to the binder of their own block, whether it stands above or below them.

Target: T1, Soluble CDCP1 extracellular domain (CDCP1-ECD) (SEQ ID NO:30) fused to Streptavidin Binding Protein (SBP) (human, UniProt Q9H5V8 30-663)
T1 construct: also called SBP-CDCP1-ECD
T1 sequence: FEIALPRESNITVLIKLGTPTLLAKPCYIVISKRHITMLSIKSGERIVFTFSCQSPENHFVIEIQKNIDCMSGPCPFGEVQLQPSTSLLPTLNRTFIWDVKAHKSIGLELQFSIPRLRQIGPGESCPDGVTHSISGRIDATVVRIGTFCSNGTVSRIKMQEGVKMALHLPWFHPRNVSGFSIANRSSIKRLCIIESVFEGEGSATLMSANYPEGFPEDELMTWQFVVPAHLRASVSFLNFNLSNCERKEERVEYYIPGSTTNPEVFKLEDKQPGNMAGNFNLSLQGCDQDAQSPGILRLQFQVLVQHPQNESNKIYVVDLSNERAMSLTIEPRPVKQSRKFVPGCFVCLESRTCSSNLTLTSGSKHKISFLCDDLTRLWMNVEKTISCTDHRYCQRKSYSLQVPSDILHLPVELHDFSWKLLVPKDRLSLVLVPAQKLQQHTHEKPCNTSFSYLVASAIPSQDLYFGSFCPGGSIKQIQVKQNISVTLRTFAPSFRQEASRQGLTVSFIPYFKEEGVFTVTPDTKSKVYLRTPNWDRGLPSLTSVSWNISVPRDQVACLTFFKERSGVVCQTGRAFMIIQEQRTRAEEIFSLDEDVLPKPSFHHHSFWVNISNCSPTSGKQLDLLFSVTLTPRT
Experiment: ELISA on captured SBP-CDCP1-ECD, ratio relative to chimeric CUB4 (chHC4)
Method: Soluble CDCP1 extracellular domain (CDCP1-ECD) (SEQ ID NO:30) fused to Streptavidin Binding Protein (SBP) was captured on a sreptavidine plate. To define optimal binding of the antibody to SBP-CDCP1-ECD, 384-well polystyrene plates (NUNC, streptavidin-coated) delivered by MicroCoat, Bernried, Germany (ID-No. 1734776-001) have been coated with pure and stepwise diluted HEK293 supernatant (in BSA/IMDM buffer: 100 mg/ml BSA Fraction V, Roche 10735078001, dissolved in Iscove's Modified Dulbeccos Medium). Using a calibration curve of mouse CUB4 antibodies the optimal dilution factor of the HEK293 supernatant in relation to the streptavidin binding capacity of the microtiter plate was identified. For the standard coating, SBP-CDCP1-ECD containing HEK293 supernatant was diluted (between 1:15 and 1:40) and incubated overnight at 2-8° C. (25 μl per well). Intensive washing of the microtiter plate is necessary to remove remaining unbound SBP-CDCP1-ECD.
Humanized CUB4 antibodies and/or reference antibody (chimeric (chHC4) CUB4 antibody comprising human constant region and mouse VH and VL of SEQ ID NO:1 and 2) were tested either undiluted or using a 12-step-dilution. 12.5 μl per well of each sample was incubated for 90 min at room temperature. After intensive washing using PBS-T (0.1% Tween 20 in PBS) 25 μl of either goat anti-human IgG antibodies coupled with HRP (Jackson ImmunoResearch, Code No: 109-036-098, dilution 1:10000) for human antibodies were added and incubated for 1 hour. After intensive washing the binding of the antibodies was detected with ABTS tablets (Roche Diagnostics GmbH, Cat. No.: 1112422). Absorbance at 405 nm/492 nm was measured using a standard photometer.

B1: hHC4-K2 / hLC4-b (antibody, V domains shown)
VH: EVQLVESGGGLVKPGGSLRLSCAASGFTFNSYGMSWVRQAPGKGLEWVSSISSGGSYTYYADSVKGRFTISRDNAKNSLYLQMNSLRAEDTAVYYCARHPDYDGVWFAYWGQGTLVTVSS
VL: EIVLTQSPATLSLSPGERATLSCSVSSSVFYVHWYQQKPGQAPRLLIYDTSKLASGIPARFSGSGSGTDYTLTISSLEPEDFAVYYCQQWNSNPPTFGGGTKVEIK
relative binding ratio: 0.12

B2: hHC4-K / hLC4-c (antibody, V domains shown)
VH: B1 VH with T58I
VL: B1 VL with L4M, L13V, D69E, Y70F, E78Q, P79S
binding result: no binding

B7: hHC4-K / hLC4-a (antibody, V domains shown)
VH: B1 VH with T58I
VL: B1 VL with Y70F
binding result: no binding

B9: hHC4-b / hLC4-M (antibody, V domains shown)
VH: B1 VH with G33S, S35N, T58I
VL: B1 VL with L21M, S24G, V25A, V32L, Q41L, L46W, A59D, Y70F, S76R
binding result: no binding

B10: hHC4-c / hLC4-c (antibody, V domains shown)
VH: B1 VH with K13Q, S49A, S50T, A61P
VL: B1 VL with L4M, L13V, D69E, Y70F, E78Q, P79S
relative binding ratio: 0.29

B12: hHC4-K / hLC4-M (antibody, V domains shown)
VH: B1 VH with T58I
VL: B1 VL with L21M, S24G, V25A, V32L, Q41L, L46W, A59D, Y70F, S76R
relative binding ratio: 0.04

B14: hHC4-b / hLC4-L (antibody, V domains shown)
VH: B1 VH with G33S, S35N, T58I
VL: B1 VL with L21M, S24R, V25A, V32L, L46W, Y70F
binding result: no binding

B15: hHC4-c / hLC4-I (antibody, V domains shown)
VH: B1 VH with K13Q, S49A, S50T, A61P
VL: B1 VL with L4M, S24R, V25A, V32L, H33S, L46W, Y70F, E78Q
binding result: no binding

B16: hHC4-K / hLC4-I (antibody, V domains shown)
VH: B1 VH with T58I
VL: B1 VL with L4M, S24R, V25A, V32L, H33S, L46W, Y70F, E78Q
binding result: no binding

B17: hHC4-a / hLC4-b (antibody, V domains shown)
VH: B1 VH with S50T, A61P
VL: B1 VL
relative binding ratio: 0.36

B18: hHC4-a / hLC4-I (antibody, V domains shown)
VH: B1 VH with S50T, A61P
VL: B1 VL with L4M, S24R, V25A, V32L, H33S, L46W, Y70F, E78Q
binding result: no binding

B20: hHC4-b / hLC4-I (antibody, V domains shown)
VH: B1 VH with G33S, S35N, T58I
VL: B1 VL with L4M, S24R, V25A, V32L, H33S, L46W, Y70F, E78Q
binding result: no binding

B21: hHC4-d / hLC4-I (antibody, V domains shown)
VH: B1 VH with V5L, K13Q, S50T, A61P, A75S, S78T, R98K
VL: B1 VL with L4M, S24R, V25A, V32L, H33S, L46W, Y70F, E78Q
binding result: no binding

B24: hHC4-b / hLC4-J (antibody, V domains shown)
VH: B1 VH with G33S, S35N, T58I
VL: B1 VL with L4M, L21M, S24R, V25A, V32L, L46W, Y70F, E78Q
binding result: no binding

B26: hHC4-c / hLC4-L (antibody, V domains shown)
VH: B1 VH with K13Q, S49A, S50T, A61P
VL: B1 VL with L21M, S24R, V25A, V32L, L46W, Y70F
relative binding ratio: 0.45

B30: hHC4-c / hLC4-a (antibody, V domains shown)
VH: B1 VH with K13Q, S49A, S50T, A61P
VL: B1 VL with Y70F
relative binding ratio: 0.34

B31: hHC4-K / hLC4-J (antibody, V domains shown)
VH: B1 VH with T58I
VL: B1 VL with L4M, L21M, S24R, V25A, V32L, L46W, Y70F, E78Q
relative binding ratio: 0.01

B32: hHC4-c / hLC4-M (antibody, V domains shown)
VH: B1 VH with K13Q, S49A, S50T, A61P
VL: B1 VL with L21M, S24G, V25A, V32L, Q41L, L46W, A59D, Y70F, S76R
relative binding ratio: 0.71

B35: hHC4-c / hLC4-J (antibody, V domains shown)
VH: B1 VH with K13Q, S49A, S50T, A61P
VL: B1 VL with L4M, L21M, S24R, V25A, V32L, L46W, Y70F, E78Q
relative binding ratio: 0.42

B36: hHC4-a / hLC4-L2 (antibody, V domains shown)
VH: B1 VH with S50T, A61P
VL: B1 VL with L21M, V32L, L46W, Y70F
relative binding ratio: 0.58

Next, values leading:

binding result: no binding
B3: hHC4-K / hLC4-b (antibody, V domains shown)
VH: B1 VH with T58I
VL: B1 VL

relative binding ratio: 0.28
B4: hHC4-a / hLC4-d (antibody, V domains shown)
VH: B1 VH with S50T, A61P
VL: B1 VL with L4M, L13V, D69E, E78Q, P79S

relative binding ratio: 0.53
B5: hHC4-c / hLC4-L2 (antibody, V domains shown)
VH: B1 VH with K13Q, S49A, S50T, A61P
VL: B1 VL with L21M, V32L, L46W, Y70F

relative binding ratio: 0.38
B6: hHC4-a / hLC4-a (antibody, V domains shown)
VH: B1 VH with S50T, A61P
VL: B1 VL with Y70F

relative binding ratio: 0.8
B8: hHC4-a / hLC4-M (antibody, V domains shown)
VH: B1 VH with S50T, A61P
VL: B1 VL with L21M, S24G, V25A, V32L, Q41L, L46W, A59D, Y70F, S76R

relative binding ratio: 0.36
B11: hHC4-c / hLC4-d (antibody, V domains shown)
VH: B1 VH with K13Q, S49A, S50T, A61P
VL: B1 VL with L4M, L13V, D69E, E78Q, P79S

binding result: no binding
B13: hHC4-b / hLC4-K (antibody, V domains shown)
VH: B1 VH with G33S, S35N, T58I
VL: B1 VL with S24R, V25A, V32L, L46W, Y70F

relative binding ratio: 0.38
B19: hHC4-d / hLC4-J (antibody, V domains shown)
VH: B1 VH with V5L, K13Q, S50T, A61P, A75S, S78T, R98K
VL: B1 VL with L4M, L21M, S24R, V25A, V32L, L46W, Y70F, E78Q

relative binding ratio: 0.55
B22: hHC4-a / hLC4-L (antibody, V domains shown)
VH: B1 VH with S50T, A61P
VL: B1 VL with L21M, S24R, V25A, V32L, L46W, Y70F

binding result: no binding
B23: hHC4-b / hLC4-b (antibody, V domains shown)
VH: B1 VH with G33S, S35N, T58I
VL: B1 VL

relative binding ratio: 0.35
B25: hHC4-a / hLC4-c (antibody, V domains shown)
VH: B1 VH with S50T, A61P
VL: B1 VL with L4M, L13V, D69E, Y70F, E78Q, P79S

relative binding ratio: 0.28
B27: hHC4-c / hLC4-b (antibody, V domains shown)
VH: B1 VH with K13Q, S49A, S50T, A61P
VL: B1 VL

binding result: no binding
B28: hHC4-b / hLC4-L2 (antibody, V domains shown)
VH: B1 VH with G33S, S35N, T58I
VL: B1 VL with L21M, V32L, L46W, Y70F

relative binding ratio: 0.02
B29: hHC4-K / hLC4-L (antibody, V domains shown)
VH: B1 VH with T58I
VL: B1 VL with L21M, S24R, V25A, V32L, L46W, Y70F

binding result: no binding
B33: hHC4-b / hLC4-a (antibody, V domains shown)
VH: B1 VH with G33S, S35N, T58I
VL: B1 VL with Y70F

relative binding ratio: 0.83
B34: hHC4-c / hLC4-K (antibody, V domains shown)
VH: B1 VH with K13Q, S49A, S50T, A61P
VL: B1 VL with S24R, V25A, V32L, L46W, Y70F
